We go through 7 substances from article PMC4034690.

Test [1] concerns the target γ-TuSC^Spc98Δ1–156 [S. cerevisiae]. Kind of test: GST pull-down, immunoblot anti-His (bound Spc97/Spc98), Li-cor quantification. Conditions: 300 nM Spc110 1-220; read off a plot; scale: %. (In general: Immunoblotting shows a protein as a band on a membrane.)
For test [2] the target is unchanged. Kind of test: GST pull-down, immunoblot anti-Tub4 (bound Tub4), Li-cor quantification. The note with it: 300 nM Spc110 1-220; read off a plot; scale: %.
Test [3] deals with γ-tubulin small complex (γ-TuSC) [S. cerevisiae]. Described as above. Conditions: 300 nM Spc110 1-220; read off a plot.
Test [4] has the same target. As to the kind of experiment: GST pull-down, immunoblot anti-His (bound Spc97, Spc98), Li-cor quantification. Conditions: 300 nM Spc110 1-220; read off a plot.
For test [5], the target named is γ-tubulin small complex (γ-TuSC), P53378;P38863;P53540. Kind of test: GST pull-down, immunoblot anti-His (bound Spc97/Spc98), Li-cor quantification. Conditions: 300 nM Spc110 1-220; read off a plot.
The target in test [6] is γ-TuSC^Spc98Δ1–156, P53378;P38863;P53540. The test is described as above. Conditions: 300 nM Spc110 1-220; parent: est. 6; read off a plot; scale: %.
Test [7] has as its target γ-tubulin small complex (γ-TuSC), P53378;P38863;P53540. As to the kind of experiment: GST pull-down, immunoblot anti-Tub4 (bound Tub4), Li-cor quantification. The note with it: 300 nM Spc110 1-220; read off a plot.
Test [8] has as its target γ-TuSC^Spc98Δ1–156, P53378;P38863;P53540. Described as above. The note with it: 300 nM Spc110 1-220; parent: est. 42; read off a plot; scale: %.
The target in test [9] is GST-Spc110^1–220-3D (S. cerevisiae) (UniProt P32380).
In test [10] the target is GST-Spc110^1–220-5D (S. cerevisiae) (UniProt P32380).
Test [11] has as its target GST-Spc110^1–220-2D (S. cerevisiae) (UniProt P32380).
The target in test [12] is γ-tubulin small complex (γ-TuSC) (S. cerevisiae) (UniProt P53378). As to the kind of experiment: SEC; γ-TuSC mixed with GST-Spc110^1–220 variant in 1:4 molar ratio (2.3:9.3) in TB150 buffer, 1 hr at 4°C, Superdex 200 10/300 or Superose 6 10/300; shift of γ-TuSC to the void volume; fractions by SDS-PAGE and silver staining; void-volume fraction also by negative-stain electron microscopy.

Test [13] shares this target. Kind of test: SEC; as a3 (TB150, Superose 6 10/300) but with the concentrations of γ-TuSC and Spc110^1–220 variants doubled (Figure 2—figure supplement 2A).

Regarding “GST-Spc110^1–220 (wild type, from E. coli, non-phosphorylated) mutant S36D; S60D; T64D; T68D; S91D [S. cerevisiae] / γ-TuSC^Spc98Δ1–156 [S. cerevisiae] chain 1 S36D, chain 1 S60D, chain 1 T64D, chain 1 T68D, chain 1 S91D”, the response in test [1] worked out at 6; in [2], 42.

As to “GST-Spc110^1–220 (wild type, from E. coli, non-phosphorylated) mutant S36D; S60D; T64D; T68D; S91D [S. cerevisiae] / γ-tubulin small complex (γ-TuSC) [S. cerevisiae] chain 1 S36D, chain 1 S60D, chain 1 T64D, chain 1 T68D, chain 1 S91D”, the response in [3] amounted to 11000 RU; in test [4], 8300 RU.

Regarding “GST-Spc110^1–220 (wild type, from E. coli, non-phosphorylated) mutant S36D; S91D [S. cerevisiae] / γ-tubulin small complex (γ-TuSC) [S. cerevisiae] chain 1 S36D, chain 1 S91D”, the response in [3] and in test [4] was 3300 RU each time.

Consider “GST-Spc110^1–220 (wild type, from E. coli, non-phosphorylated) mutant S60D; T64D; T68D [S. cerevisiae] / γ-tubulin small complex (γ-TuSC) [S. cerevisiae] chain 1 S60D, chain 1 T64D, chain 1 T68D”, for which the values for the response in [3] and in test [4] were 10000 RU and 7400 RU, respectively.

Consider “GST-Spc110^1–220-5D (from UniProt P32380) CM1-QA”, for which the percent of parent in [5] amounted to 45%; in [7], 49%. In addition, the response in test [6] was 3; in test [8] it was 34.

Consider “GST-Spc110^1–220-5D (from UniProt P32380) T18D; CM1-QA”, for which the percent of parent in test [5] amounted to 16%; in test [7], 40%. Further, the results for the response in [6] and in test [8] were 9 and 32, respectively.

A word on the stoichiometry N: it is a count of units in the complex or per binding partner. With “γ-tubulin small complex (γ-TuSC), P53378 1-473; P38863 1-823; P53540 1-846”, the in vitro MT nucleation activity (MTs/field normalised to buffer only); 3 μM γ-TuSC pre-incubated with 15 μM GST-Spc110^1–220 variant; compared to the buffer control and γ-TuSC alone in [9], in [10] and in test [11] was 3 fold throughout. The stoichiometry N is more than 14 in test [12] and 2 in test [13].
